Laboratory results from patent US20020156009A1 (published 2002).

B1: interleukin-1 (IL-1) receptor on human cells (receptor, UniProt P14778 18-569, looked up)
chain: LEADKCKEREEKIILVSSANEIDVRPCPLNPNEHKGTITWYKDDSKTPVSTEQASRIHQHKEKLWFVPAKVEDSGHYYCVVRNSSYCLRIKISAKFVENEPNLCYNAQAIFKQKLPVAGDGGLVCPYMEFFKNENNELPKLQWYKDCKPLLLDNIHFSGVKDRLIVMNVAEKHRGNYTCHASYTYLGKQYPITRVIEFITLEENKPTRPVIVSPANETMEVDLGSQIQLICNVTGQLSDIAYWKWNGSVIDEDDPVLGEDYYSVENPANKRRSTLITVLNISEIESRFYKHPFTCFAKNTHGIDAAYIQLIYPVTNFQKHMIGICVTLTVIIVCSVFIYKIFKIDIVLWYRDSCYDFLPIKASDGKTYDAYILYPKTVGEGSTSDCDIFVFKVLPEVLEKQCGYKLFIYGRDDYVGEDIVEVINENVKKSRRLIIILVRETSGFSWLGGSSEEQIAMYNALVQDGIKVVLLELEKIQDYEKMPESIKFIKQKHGAIRWSGDFTQGPQSAKTRFWKNVRYHMPVQRRSPSSKHQLLSPATKEKLQREAHVPLG
notes: whole, on cells

Key:
[1] = target: interleukin-1 (IL-1) receptor on human cells (human) (UniProt P14778); experiment: cell-based or functional assay
[2] = target: T1, bovine serum albumin (BSA) (bovine, UniProt P02769 25-607); experiment: FACS on human fibroblast cells (CCD 1089)
T1 construct: also called non-related protein
Experimental: A cell binding assay was carried out, in a modification of the procedure as described above in Example 7.1, to determine if IL-1 Hy2 of the invention binds to the interleukin-1 (IL-1) receptor. Briefly, fluorescent activated cell sorting (FACS) was used to measure cell binding of the recombinant protein (see Example 6) using fluorescent antibodies specific for the express tag on the IL-1 Hy2 recombinant protein. In each reaction, 10⁶ cells of human fibroblast cells (CCD 1089) were suspended in 100 μl of FACS buffer (containing distilled PBS, 3% calf serum and 0.01% azide). Cell binding reactions included 5 nM recombinant IL-1 Hy2 in 100 μl cell suspension. The cells were incubated on ice for one hour. The cells were pelleted by centrifugation, 200 μl of 0.2 mM BS3 (crosslinker) was added, and the cells were kept on ice for 30 minutes. Next, 10 μl […] pH 7.5 was added and the cells were incubated for 15 minutes on ice. The cells were pelleted by centrifugation, washed one time in FACS buffer, resuspended in 100 μl volume of FACS buffer, 2 μl primary antibody (anti-express tag antibody 1 mg/ml) was added, and incubation continued on ice for an additional 30 minutes. […] The cells were again pelleted by centrifugation, washed two times with FACS buffer, resuspended in 0.5 ml FACS buffer and analyzed on FACS.

T1 sequence (P02769 25-607 limits assumed): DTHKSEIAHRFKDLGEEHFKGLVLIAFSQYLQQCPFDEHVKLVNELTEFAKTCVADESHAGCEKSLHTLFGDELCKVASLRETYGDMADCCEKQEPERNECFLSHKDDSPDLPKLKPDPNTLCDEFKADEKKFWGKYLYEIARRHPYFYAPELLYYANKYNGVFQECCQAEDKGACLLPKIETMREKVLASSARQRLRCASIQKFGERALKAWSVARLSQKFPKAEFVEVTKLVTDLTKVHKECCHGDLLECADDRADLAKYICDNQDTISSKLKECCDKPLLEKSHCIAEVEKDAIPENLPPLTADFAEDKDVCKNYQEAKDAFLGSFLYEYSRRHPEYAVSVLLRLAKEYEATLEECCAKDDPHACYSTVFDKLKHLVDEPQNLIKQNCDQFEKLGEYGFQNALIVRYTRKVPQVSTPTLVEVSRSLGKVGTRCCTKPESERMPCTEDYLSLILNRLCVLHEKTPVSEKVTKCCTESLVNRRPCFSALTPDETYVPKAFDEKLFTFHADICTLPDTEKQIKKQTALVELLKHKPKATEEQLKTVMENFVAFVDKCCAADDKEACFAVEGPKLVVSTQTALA

Molecule	inhibition of IL-1β induced PGE2 production, human fibroblasts (CCD 1098), 1 ng/ml IL-1β, IL-1 Hy2 at 1000 fold excess, PGE2 ELISA [1]	binding result [2]
IL-1 Hy2 (preparation used in the cell-based activity assays) (from UniProt Q8WWZ1 1-152) (ligand)	40 to 60%	–
B1	–	no binding (tested: same molarity as IL-1 Hy2 (5 nM))
